Experimental data as given in patent US20150110792A1 (Biogen, published 2015).

What was measured:
[1] = biological target: T1, human TIM-1-Fc (extracellular domain of human TIM-1, residues 1-290, attached to the Fc portion of human IgG1) (human, UniProt Q96D42 21-290); assay: ELISA-1, plates coated with 2 µg/ml human TIM-1-Fc
T1 construct: also called TIM-1-Ig; human TIM1-Ig; not shown: Fc portion of human IgG1
T1 sequence: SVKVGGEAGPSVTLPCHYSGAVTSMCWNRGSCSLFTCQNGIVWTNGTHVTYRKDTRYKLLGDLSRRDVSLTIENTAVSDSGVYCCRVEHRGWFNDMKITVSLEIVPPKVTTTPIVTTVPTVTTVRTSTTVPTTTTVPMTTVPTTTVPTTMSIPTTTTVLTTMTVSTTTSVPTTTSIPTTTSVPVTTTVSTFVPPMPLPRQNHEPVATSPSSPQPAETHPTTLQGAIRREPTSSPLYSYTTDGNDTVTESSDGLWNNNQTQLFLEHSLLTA
Procedure: In the second assay, an ELISA format was used to measure the relative affinity of three anti-TIM-1 monoclonal antibodies for human TIM-1. Titration curves were derived for each antibody and EC50 values were calculated from the curves. […] Plates were thoroughly washed with PBS/0.1% Tween-20. Anti-human TIM-1 monoclonal antibodies were added across a range of concentrations starting at 10 μg/ml and using 1:3 dilutions, all in PBS/0.5% casein, and allowed to incubate for 1 hour at 22° C. The plates were washed again, and then a 1:1000 dilution of HRP-conjugated goat anti-mouse IgG (H+L; Jackson Immunoresearch Laboratories) was added in PBS/0.5% casein for an additional hour at 22° C. After a final wash, the plates were developed using substrate solution mix (R&D Systems) and stopped using 2N H2SO4. Plates were read at 450 nm using a microplate reader and analyzed using SoftMax Pro (Molecular Devices). Relative EC50 values were determined from the binding curves.
The cynomolgus monkey TIM-1 extracellular domain was expressed as an Fc fusion protein, purified, and used in the ELISA format described above for binding monoclonal antibodies to the human TIM-1 protein. […] The resulting titration curves were used to derive a relative EC50 for anti-human TIM-1 monoclonal antibody binding to human TIM-1 and cynomolgus monkey TIM-1 (Table 2, ELISA-2).

[2] = biological target: T1, human TIM-1-Fc (extracellular domain of …); assay: ELISA, plates coated with human TIM-1-Fc
Procedure: (§1) In the second assay, an ELISA format was used to measure the relative affinity of three anti-TIM-1 monoclonal antibodies for human TIM-1. Titration curves were derived for each antibody and EC50 values were calculated from the curves. Briefly, ELISA plates (Corning Costar) were coated with 0.2 μg/ml human TIM-1-Fc overnight at 4° C. and then blocked for 1 hour at 22° C. with PBS/0.5% casein. Plates were thoroughly washed with PBS/0.1% Tween-20. Anti-human TIM-1 monoclonal antibodies were added across a range of concentrations starting at 10 μg/ml and using 1:3 dilutions, all in PBS/0.5% casein, and allowed to incubate for 1 hour at 22° C. The plates were washed again, and then a 1:1000 dilution of HRP-conjugated goat anti-mouse IgG (H+L; Jackson Immunoresearch Laboratories) was added in PBS/0.5% casein for an additional hour at 22° C. After a final wash, the plates were developed using substrate solution mix (R&D Systems) and stopped using 2N H2SO4. Plates were read at 450 nm using a microplate reader and analyzed using SoftMax Pro (Molecular Devices). Relative EC50 values were determined from the binding curves.

[3] = biological target: T2, human TIM-1 expressed on cells (human, UniProt Q96D42 21-364); assay: flow cytometry on 769-P cells (constitutively expressing human TIM-1), PE anti-mouse IgG, MFI against µg/ml of mAb
T2 construct: Full-length human TIM-1 on transfected (HEK 293T, 293E, JUN2 Jurkat) or constitutively expressing (769-P) cells; also called HAVCR1; KIM-1
T2 sequence: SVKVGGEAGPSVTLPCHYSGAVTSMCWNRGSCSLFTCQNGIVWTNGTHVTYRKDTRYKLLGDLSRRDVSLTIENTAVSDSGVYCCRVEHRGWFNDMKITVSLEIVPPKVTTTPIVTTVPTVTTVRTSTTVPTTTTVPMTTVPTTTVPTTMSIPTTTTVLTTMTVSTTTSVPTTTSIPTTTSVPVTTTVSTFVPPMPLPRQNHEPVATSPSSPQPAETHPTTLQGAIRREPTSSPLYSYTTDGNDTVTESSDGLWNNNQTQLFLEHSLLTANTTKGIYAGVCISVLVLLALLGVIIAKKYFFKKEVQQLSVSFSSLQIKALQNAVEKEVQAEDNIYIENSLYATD
Procedure: (§2) Three assays were used to assess the affinity of ARD5 for human TIM-1. In the first assay, ARD5 binding to cells expressing TIM-1 was measured by Flow Cytometry. Two cell lines were used. JUN2 cells are a stable human Jurkat TIM-1-expressing cell line (described in Binne et al. (2007) J. Immunol. 178: 4342-50). The human kidney cell line 769-P also constitutively expresses TIM-1. JUN2 cells and 769-P cells were cultured in RPMI/10% FBS. JUN2 cells grow in suspension; 769-P cells are adherent and were gently removed with Accutase (Invitrogen). Cells were resuspended in PBS/5% BSA and incubated with monoclonal antibodies for 1 hour on ice. Following several washes with PBS/5% BSA, the cells were resuspended in the same buffer containing PE-coupled donkey anti-mouse IgG secondary antibody (Jackson Immunoresearch). Following an additional wash in PBS/5% BSA and a final wash in PBS, cell were resuspended in 100 ul PBS and fixed in an equal volume of 2% paraformaldehyde. Monoclonal antibody binding was analyzed using a flow cytometer (FACScan).

[4] = biological target: T3, cynomolgus monkey TIM-1-Fc (cynomolgus monkey TIM-1 extracellular domain expressed as an Fc fusion protein) (Cynomolgus monkey (Macaca fascicularis)); assay: ELISA-2, plates coated with 0.2 µg/ml cynomolgus monkey TIM-1-Fc
T3 construct: also called cyno.TIM1; not shown: Fc part
T3 chain: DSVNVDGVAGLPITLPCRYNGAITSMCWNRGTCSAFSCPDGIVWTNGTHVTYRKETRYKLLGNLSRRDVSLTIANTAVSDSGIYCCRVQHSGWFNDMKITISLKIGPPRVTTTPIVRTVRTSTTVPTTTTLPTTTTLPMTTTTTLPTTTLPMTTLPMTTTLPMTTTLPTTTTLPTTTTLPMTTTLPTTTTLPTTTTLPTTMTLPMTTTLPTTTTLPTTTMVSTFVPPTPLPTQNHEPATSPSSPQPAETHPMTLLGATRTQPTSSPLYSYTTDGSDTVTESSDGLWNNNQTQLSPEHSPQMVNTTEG
Procedure: as §1
(§3) The cynomolgus monkey TIM-1 extracellular domain was expressed as an Fc fusion protein, purified, and used in the ELISA format described above for binding monoclonal antibodies to the human TIM-1 protein. […]

[5] = biological target: T3, cynomolgus monkey TIM-1-Fc (cynomolgus …); assay: ELISA-1, plates coated with 2 µg/ml cynomolgus monkey TIM-1-Fc
Procedure: as §1, §3

[6] = biological target: T1, human TIM-1-Fc (extracellular domain of …); assay: SPR (Biacore), human TIM-1-Fc
[7] = biological target: T1, human TIM-1-Fc (extracellular domain of …); assay: ELISA-2, plates coated with 0.2 µg/ml human TIM-1-Fc
Procedure: as §1, §3

[8] = biological target: T3, cynomolgus monkey TIM-1-Fc (cynomolgus …); assay: SPR (Biacore), cynomolgus monkey TIM-1-Fc
[9] = biological target: T2, human TIM-1 expressed on cells; assay: flow cytometry on JUN2 cells (Jurkat stably expressing human TIM-1), PE anti-mouse IgG, MFI against µg/ml of mAb
Procedure: as §2

[10] = biological target: T4, Cynomolgus monkey TIM-1 expressed on transfected 293E cells (Cynomolgus monkey (Macaca fascicularis), UniProt O46598 25-478 (Chlorocebus aethiops entry)); assay: flow cytometry on 293E cells transfected with Cynomolgus monkey TIM-1 cDNA, gated on EGFP-positive cells, PE anti-mouse IgG
T4 construct: Full-length cDNA (pEAG2184) transfected into 293E cells; also called Cynomolgus TIM-1
T4 chain: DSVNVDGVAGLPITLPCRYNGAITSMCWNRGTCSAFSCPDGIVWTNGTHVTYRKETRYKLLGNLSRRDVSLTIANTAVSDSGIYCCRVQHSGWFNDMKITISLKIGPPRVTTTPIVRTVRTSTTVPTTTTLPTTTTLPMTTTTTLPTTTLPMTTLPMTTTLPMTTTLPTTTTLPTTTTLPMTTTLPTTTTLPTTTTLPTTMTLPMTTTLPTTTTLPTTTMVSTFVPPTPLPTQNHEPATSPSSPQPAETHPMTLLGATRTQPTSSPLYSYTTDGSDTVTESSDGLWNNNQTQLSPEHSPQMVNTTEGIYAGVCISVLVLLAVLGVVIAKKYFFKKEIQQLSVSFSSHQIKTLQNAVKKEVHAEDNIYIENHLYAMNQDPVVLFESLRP
Procedure: In a second series of experiments, 293E cells transfected with human TIM-1 cDNA or Cynomolgus monkey TIM-1 cDNA were analyzed for anti-human TIM-1 monoclonal antibody binding by flow cytometry. The full-length human and cynomolgus monkey TIM1 cDNAs were engineered to remove extraneous 5′ and 3′ UTRs and to add an identical optimized Kozak sequence, then were subcloned into pNE001, a fully sequence-confirmed pUC-based EBV expression vector derived from the Invitrogen expression vector pCEP4, in which heterologous gene expression is controlled by a CMV-IE promoter and an SV40 polyadenylation signal, but lacking the EBNA gene and the hygromycin resistance gene. TIM-1 expression vectors (human: pEAG2182, and cynomolgus monkey: pEAG2184) were co-transfected into 293E cells at a 1:1 molar ratio with an EBV expression vector carrying an EGFP reporter (pEAG1458). Cells were transfected using Qiagen's Effectene reagent, following the manufacturer's recommended protocol. Cells were used in FACS at 2 days post-transfection, staining with a dilution titration series of murine anti-human TIM1 monoclonal antibodies, (detected with PE-conjugated goat anti-mouse IgG secondary antibody) and gating on green EGFP-positive living cells. […]

[11] = biological target: T1, human TIM-1-Fc (extracellular domain of …); assay: SPR (Biacore), monovalent binding to immobilized human TIM-1

Row | Binder | EC50 [1] [µg/mL] | EC50 [2] [µg/mL] | relative EC50 against A6G2 and A3H1 (percent greater) [2] [%] | EC50 (read off the curve) [3] [µg/mL] | EC50 [4] [µg/mL] | EC50 [5] [µg/mL] | Kd [6] [nM] | EC50 [7] [µg/mL] | Kd [8] [nM] | EC50 (read off the curve) [9] [µg/mL] | binding result [10] | Kd [11] [nM]
1 | monoclonal antibody ARD5 (antibody, mouse IgG1, kappa, V domains shown, Murine IgG1/kappa hybridoma antibody (ATCC PTA-12195); also called ARD5.12; muARD5) VH: QVQLQQSGAELVRPGTSVKVSCKASGYVFTNYWIEWIKQRPGQGLEWIGVMNPGSGETTYNEKFKGKATLTADKSSSTAYMQLSSLTSVDSAVYFCARDHDRDYYAMDYWGQGTSVTVSS VL: EIQMTQSPSSMSASLGDTITITCQATQDIFKNLNWYQQKPGKPPSLLIYYATELAEGVPSRFSGSGSGSDYSLTISNLESEDFAAYYCLQFFEFPFTFGSGTKLEMKR | 0.001 | 0.00078 | 80.5 | ~0.2 | 0.013 | 0.002 | ≤ 0.6 | 0.043 | < 50 | ~0.1 | binds | 
2 | FAb fragment of ARD5 (Fab, V domains shown, Fab purified from the ARD5 monoclonal antibody; also called FAb of ARD5; not shown: murine IgG1 CH1 and part of the hinge) VH: QVQLQQSGAELVRPGTSVKVSCKASGYVFTNYWIEWIKQRPGQGLEWIGVMNPGSGETTYNEKFKGKATLTADKSSSTAYMQLSSLTSVDSAVYFCARDHDRDYYAMDYWGQGTSVTVSS VL: EIQMTQSPSSMSASLGDTITITCQATQDIFKNLNWYQQKPGKPPSLLIYYATELAEGVPSRFSGSGSGSDYSLTISNLESEDFAAYYCLQFFEFPFTFGSGTKLEMKR |  |  |  |  |  |  |  |  |  |  |  | 3
